Experimental data: patent US20110311522A1

Columns and labels:
[1] = target: phage peptides (screening product screened with 8G9 from twelve-peptide library)
[2] = target: 14 strains of non-H5 viruses (H1~H13, Chicken NDV); experiment: cell-based or functional assay
[3] = target: H5 virus strain (fifteen strains of H5N1 viruses); experiment: cell-based or functional assay
[4] = target: hemagglutinin (HA) of H5N1 virus strain FJ1.5 (H5N1 avian influenza virus, strain FJ1.5); experiment: cell-based or functional assay
[5] = target: hemagglutinin (HA) of H5N1 virus strain GD1.1 (H5N1 avian influenza virus, strain GD1.1); experiment: cell-based or functional assay
[6] = target: hemagglutinin (HA) of H5N1 virus strain GD3.1 (H5N1 avian influenza virus, strain GD3.1); experiment: cell-based or functional assay
[7] = target: hemagglutinin (HA) of H5N1 virus strain GD4.1 (H5N1 avian influenza virus, strain GD4.1); experiment: cell-based or functional assay
[8] = target: hemagglutinin (HA) of H5N1 virus strain HN3.1 (H5N1 avian influenza virus, strain HN3.1); experiment: cell-based or functional assay
[9] = target: hemagglutinin (HA) of H5N1 virus strain IDN1.1 (H5N1 avian influenza virus, strain IDN1.1); experiment: cell-based or functional assay
[10] = target: hemagglutinin (HA) of H5N1 virus strain IDN3.1 (H5N1 avian influenza virus, strain IDN3.1); experiment: cell-based or functional assay
[11] = target: hemagglutinin (HA) of H5N1 virus strain IDN6.1 (H5N1 avian influenza virus, strain IDN6.1); experiment: cell-based or functional assay
[12] = target: hemagglutinin (HA) of H5N1 virus strain IDN8.1 (H5N1 avian influenza virus, strain IDN8.1); experiment: cell-based or functional assay
[13] = target: hemagglutinin (HA) of H5N1 virus strain Mixed1.1 (H5N1 avian influenza virus, strain Mixed1.1); experiment: cell-based or functional assay
[14] = target: hemagglutinin (HA) of H5N1 virus strain QH1.1 (H5N1 avian influenza virus, strain QH1.1); experiment: cell-based or functional assay
[15] = target: hemagglutinin (HA) of H5N1 virus strain VNM2-2.1 (H5N1 avian influenza virus, strain VNM2-2.1); experiment: cell-based or functional assay
[16] = target: hemagglutinin (HA) of H5N1 virus strain VTM1.1 (H5N1 avian influenza virus, strain VTM1.1); experiment: cell-based or functional assay
[17] = target: hemagglutinin (HA) of H5N1 virus strain VTM4.1 (H5N1 avian influenza virus, strain VTM4.1); experiment: cell-based or functional assay
[18] = target: hemagglutinin (HA) of H5N1 virus strain YN2.1 (H5N1 avian influenza virus, strain YN2.1); experiment: cell-based or functional assay
[19] = target: hemagglutinin (HA) of H5N1 virus strain A1 (H5N1 avian influenza virus, strain A1); experiment: cell-based or functional assay
[20] = target: hemagglutinin (HA) of H5N1 virus strain A2 (H5N1 avian influenza virus, strain A2); experiment: cell-based or functional assay
[21] = target: hemagglutinin (HA) of H5N1 virus strain A3 (H5N1 avian influenza virus, strain A3); experiment: cell-based or functional assay
[22] = target: hemagglutinin (HA) of H5N1 virus strain A6 (H5N1 avian influenza virus, strain A6); experiment: cell-based or functional assay
[23] = target: hemagglutinin (HA) of H5N1 virus strain A7 (H5N1 avian influenza virus, strain A7); experiment: cell-based or functional assay
[24] = target: hemagglutinin (HA) of H5N1 virus strain A8 (H5N1 avian influenza virus, strain A8); experiment: cell-based or functional assay
[25] = target: hemagglutinin (HA) of H5N1 virus strain B1 (H5N1 avian influenza virus, strain B1); experiment: cell-based or functional assay
[26] = target: hemagglutinin (HA) of H5N1 virus strain B3 (H5N1 avian influenza virus, strain B3); experiment: cell-based or functional assay
[27] = target: hemagglutinin (HA) of H5N1 virus strain B4 (H5N1 avian influenza virus, strain B4); experiment: cell-based or functional assay
[28] = target: hemagglutinin (HA) of H5N1 virus strain B6 (H5N1 avian influenza virus, strain B6); experiment: cell-based or functional assay
[29] = target: hemagglutinin (HA) of H5N1 virus strain B7 (H5N1 avian influenza virus, strain B7); experiment: cell-based or functional assay
[30] = target: hemagglutinin (HA) of H5N1 virus strain B8 (H5N1 avian influenza virus, strain B8); experiment: cell-based or functional assay
[31] = target: hemagglutinin (HA) of H5N1 virus strain C2 (H5N1 avian influenza virus, strain C2); experiment: cell-based or functional assay
[32] = target: hemagglutinin (HA) of H5N1 virus strain C3 (H5N1 avian influenza virus, strain C3); experiment: cell-based or functional assay
[33] = target: hemagglutinin (HA) of H5N1 virus strain D1 (H5N1 avian influenza virus, strain D1); experiment: cell-based or functional assay
[34] = target: hemagglutinin (HA) of H5N1 virus strain D2 (H5N1 avian influenza virus, strain D2); experiment: cell-based or functional assay
[35] = target: hemagglutinin (HA) of H5N1 virus strain D3 (H5N1 avian influenza virus, strain D3); experiment: cell-based or functional assay
[36] = target: hemagglutinin (HA) of H5N1 virus strain E1 (H5N1 avian influenza virus, strain E1); experiment: cell-based or functional assay
[37] = target: hemagglutinin (HA) of H5N1 virus strain E2 (H5N1 avian influenza virus, strain E2); experiment: cell-based or functional assay
[38] = target: hemagglutinin (HA) of H5N1 virus strain F2 (H5N1 avian influenza virus, strain F2); experiment: cell-based or functional assay
[39] = target: hemagglutinin (HA) of H5N1 virus strain F3 (H5N1 avian influenza virus, strain F3); experiment: cell-based or functional assay
[40] = target: hemagglutinin (HA) of H5N1 virus strain F4 (H5N1 avian influenza virus, strain F4); experiment: cell-based or functional assay
[41] = target: hemagglutinin (HA) of H5N1 virus strain G1 (H5N1 avian influenza virus, strain G1); experiment: cell-based or functional assay
[42] = target: hemagglutinin (HA) of H5N1 virus strain H2 (H5N1 avian influenza virus, strain H2); experiment: cell-based or functional assay

B1: monoclonal antibody 8G9 (antibody, V domains shown)
VH: QVQLQQPGVELVRPGASVKLSCKASGYTFTSFWMNWVKQRPDQGLEWIGRIDPYDSETHYNQKFKDKAILTVDKSSSTAYMQLSSLTSEDSAVYYCGRGIATLMVLPDYWGQGTSVTVSS
VL: DILMTQSPSSMSVSLGDTVSITCHASQDISSNMGWLQQKPGKSLKGLIYHGTNLEDGVPSRFSGSGSGPDYSLTISSLESEDFADYYCVQYIQFPWTFGGGTKLEIKR
With B1 the OD value relative to that of the control antibodies [1] was > 3 fold, the Positive number/total virus number, hemagglutination inhibition assay (of 14 virus strains positive) [2] was 0 and the Positive number/total virus number, hemagglutination inhibition assay (of 15 virus strains positive) [3] was 15. The Hamaglutinin inhibition titer [4] was 12800 titer, the Neutralization titer [4] was 12800 titer and the Hamaglutinin inhibition titer [5] was 12800 titer. It also gave a Neutralization titer [5] of 12800 titer, a Hamaglutinin inhibition titer [6] of 12800 titer and a Neutralization titer [6] of 12800 titer. For the same binder, the Hamaglutinin inhibition titer [7] was 12800 titer, the Neutralization titer [7] was 12800 titer and the Hamaglutinin inhibition titer [8] was 12800 titer. For the same binder, the Neutralization titer [8] was 12800 titer, the Hamaglutinin inhibition titer [9] was 12800 titer and the Neutralization titer [9] was 12800 titer. The Hamaglutinin inhibition titer [10] was 12800 titer, the Neutralization titer [10] was 12800 titer and the Hamaglutinin inhibition titer [11] was 12800 titer. It also gave a Neutralization titer [11] of 12800 titer, a Hamaglutinin inhibition titer [12] of 12800 titer and a Neutralization titer [12] of 12800 titer. It also gave a Hamaglutinin inhibition titer [13] of 12800 titer, a Neutralization titer [13] of 12800 titer and a Hamaglutinin inhibition titer [14] of 12800 titer. It also gave a Neutralization titer [14] of 12800 titer, a Hamaglutinin inhibition titer [15] of 12800 titer and a Neutralization titer [15] of 12800 titer. The Hamaglutinin inhibition titer [16] was 12800 titer, the Neutralization titer [16] was 12800 titer and the Hamaglutinin inhibition titer [17] was 12800 titer. For the same binder, the Neutralization titer [17] was 12800 titer, the Hamaglutinin inhibition titer [18] was 12800 titer and the Neutralization titer [18] was 12800 titer.

B2: monoclonal antibody 13D4 (antibody, V domains shown)
VH: QVQLQQSGAELMKPGASVKISCKATGYTFSGHWIEWVKQRPGHGLEWIGEILPGSGNIHYNEKFKGKATFAADTSSNTAYMQLSSLTSEDSAVYYCARLGTTAVERDWYFDVWGQGTTVTESL
VL: DIVMTQSQKFMSASVGDRVSVTCKASQNVGTHLAWYQQKPGQSPKALIYSASYRYSGVPDRFTGSGSGTDFTLTISNVQSGDLADYFCQQYNNFPLTFGAGTKLEIKR
For B2, the Positive number/total virus number, hemagglutination inhibition assay (of 14 virus strains positive) [2] was 0, the Positive number/total virus number, hemagglutination inhibition assay (of 15 virus strains positive) [3] was 15 and the HI titer (hemagglutinin inhibition assay) (n (HI titer = 2^n)) [19] was > 8. For the same binder, the HI titer (hemagglutinin inhibition assay) (n (HI titer = 2^n)) [20] was 7, the HI titer (hemagglutinin inhibition assay) (n (HI titer = 2^n)) [21] was 6 and the HI titer (hemagglutinin inhibition assay) (n (HI titer = 2^n)) [22] was 3. For the same binder, the HI titer (hemagglutinin inhibition assay) (n (HI titer = 2^n)) [23] was 4, the HI titer (hemagglutinin inhibition assay) (n (HI titer = 2^n)) [24] was 5 and the HI titer (hemagglutinin inhibition assay) (n (HI titer = 2^n)) [25] was > 8. For the same binder, the HI titer (hemagglutinin inhibition assay) (n (HI titer = 2^n)) [26] was 3, the HI titer (hemagglutinin inhibition assay) (n (HI titer = 2^n)) [27] was 5 and the HI titer (hemagglutinin inhibition assay) (n (HI titer = 2^n)) [28] was > 8. For the same binder, the HI titer (hemagglutinin inhibition assay) (n (HI titer = 2^n)) [29] was 7, the HI titer (hemagglutinin inhibition assay) (n (HI titer = 2^n)) [30] was > 8 and the HI titer (hemagglutinin inhibition assay) (n (HI titer = 2^n)) [31] was 3. It also gave an HI titer (hemagglutinin inhibition assay) (n (HI titer = 2^n)) [32] of 4, an HI titer (hemagglutinin inhibition assay) (n (HI titer = 2^n)) [33] of 5 and an HI titer (hemagglutinin inhibition assay) (n (HI titer = 2^n)) [34] of 5. For the same binder, the HI titer (hemagglutinin inhibition assay) (n (HI titer = 2^n)) [35] was 6, the HI titer (hemagglutinin inhibition assay) (n (HI titer = 2^n)) [36] was 7 and the HI titer (hemagglutinin inhibition assay) (n (HI titer = 2^n)) [37] was 6. The HI titer (hemagglutinin inhibition assay) (n (HI titer = 2^n)) [38] was 5, the HI titer (hemagglutinin inhibition assay) (n (HI titer = 2^n)) [39] was > 8 and the HI titer (hemagglutinin inhibition assay) (n (HI titer = 2^n)) [40] was 1. For the same binder, the Hamaglutinin inhibition titer [4] was 12800 titer, the Neutralization titer [4] was 12800 titer and the HI titer (hemagglutinin inhibition assay) (n (HI titer = 2^n)) [41] was 4. It also gave a Hamaglutinin inhibition titer [5] of 6400 titer, a Neutralization titer [5] of 12800 titer and a Hamaglutinin inhibition titer [6] of 12800 titer. The Neutralization titer [6] was 12800 titer, the Hamaglutinin inhibition titer [7] was 12800 titer and the Neutralization titer [7] was 12800 titer. The HI titer (hemagglutinin inhibition assay) (n (HI titer = 2^n)) [42] was 3, the Hamaglutinin inhibition titer [8] was 12800 titer and the Neutralization titer [8] was 12800 titer. The Hamaglutinin inhibition titer [9] was 12800 titer, the Neutralization titer [9] was 12800 titer and the Hamaglutinin inhibition titer [10] was 12800 titer. It also gave a Neutralization titer [10] of 12800 titer, a Hamaglutinin inhibition titer [11] of 12800 titer and a Neutralization titer [11] of 12800 titer. The Hamaglutinin inhibition titer [12] was 12800 titer, the Neutralization titer [12] was 12800 titer and the Hamaglutinin inhibition titer [13] was 6400 titer. The Neutralization titer [13] was 12800 titer, the Hamaglutinin inhibition titer [14] was 12800 titer and the Neutralization titer [14] was 12800 titer. For the same binder, the Hamaglutinin inhibition titer [15] was 12800 titer, the Neutralization titer [15] was 12800 titer and the Hamaglutinin inhibition titer [16] was 6400 titer. For the same binder, the Neutralization titer [16] was 12800 titer, the Hamaglutinin inhibition titer [17] was 12800 titer and the Neutralization titer [17] was 12800 titer. For the same binder, the Hamaglutinin inhibition titer [18] was 12800 titer and the Neutralization titer [18] was 12800 titer.
